One block for each binder: values may come before it. No end group written: not given here. *: point of attachment. Succinimide(1-Et,3-yl) = CCN1C(=O)CC(*)C1=O
Biological target: T1, human CRH receptor type 2 (human, UniProt Q13324 1-411)
T1 sequence (looked up): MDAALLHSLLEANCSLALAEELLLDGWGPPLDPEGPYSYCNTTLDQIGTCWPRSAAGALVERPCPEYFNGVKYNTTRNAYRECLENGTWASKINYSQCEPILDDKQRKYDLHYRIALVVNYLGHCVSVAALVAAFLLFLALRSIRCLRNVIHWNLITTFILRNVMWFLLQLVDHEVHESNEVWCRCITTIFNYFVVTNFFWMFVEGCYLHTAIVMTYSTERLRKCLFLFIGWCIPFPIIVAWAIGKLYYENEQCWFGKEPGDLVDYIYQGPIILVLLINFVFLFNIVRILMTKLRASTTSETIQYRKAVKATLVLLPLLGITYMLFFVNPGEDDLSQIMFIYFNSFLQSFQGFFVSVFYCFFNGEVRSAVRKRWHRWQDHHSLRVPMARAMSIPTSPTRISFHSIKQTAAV
Assay: cell-based or functional assay

Log DR against h-SCP, cAMP: -0.01 log10 ratio
pA50, cAMP: 9.48 -log M
B2: Cys-variant of stresscopin peptide with N-Ethylsuccinimide (NES) reactive group, SEQ ID NO: 45 (peptide)
peptide: TKFTLSLDVPTNIMNLLFNIAKAKNLRAQAAC(Succinimide(1-Et,3-yl))NAHLMAQI-NH2
modifications: N-terminus assumed
SMILES: CC[C@H](C)[C@H](NC(=O)[C@H](CCC(N)=O)NC(=O)[C@H](C)NC(=O)[C@H](CCSC)NC(=O)[C@H](CC(C)C)NC(=O)[C@H](Cc1c[nH]cn1)NC(=O)[C@H](C)NC(=O)[C@H](CC(N)=O)NC(=O)[C@H](CSC1CC(=O)N(CC)C1=O)NC(=O)[C@H](C)NC(=O)[C@H](C)NC(=O)[C@H](CCC(N)=O)NC(=O)[C@H](C)NC(=O)[C@H](CCCNC(=N)N)NC(=O)[C@H](CC(C)C)NC(=O)[C@H](CC(N)=O)NC(=O)[C@H](CCCCN)NC(=O)[C@H](C)NC(=O)[C@H](CCCCN)NC(=O)[C@H](C)NC(=O)[C@@H](NC(=O)[C@H](CC(N)=O)NC(=O)[C@H](Cc1ccccc1)NC(=O)[C@H](CC(C)C)NC(=O)[C@H](CC(C)C)NC(=O)[C@H](CC(N)=O)NC(=O)[C@H](CCSC)NC(=O)[C@@H](NC(=O)[C@H](CC(N)=O)NC(=O)[C@@H](NC(=O)[C@@H]1CCCN1C(=O)[C@@H](NC(=O)[C@H](CC(=O)O)NC(=O)[C@H](CC(C)C)NC(=O)[C@H](CO)NC(=O)[C@H](CC(C)C)NC(=O)[C@@H](NC(=O)[C@H](Cc1ccccc1)NC(=O)[C@H](CCCCN)NC(=O)[C@@H](N)[C@@H](C)O)[C@@H](C)O)C(C)C)[C@@H](C)O)[C@@H](C)CC)[C@@H](C)CC)C(N)=O

Log DR against h-SCP, cAMP: 1.55 log10 ratio
pA50, cAMP: 8.12 -log M
Binder: TKFTLSLDVPTNIMNLLFNIAKAKNLRAQAAANCHLMAQI (NES-PEG (about 20 kDa) on Cys 34; C-terminal amide) [Pegylated Cys-variant CRHR2 peptide agonist (NES linker, PEG about 20 kDa), SEQ ID NO: 88]

Log DR against h-SCP, cAMP: 1.55 log10 ratio
pA50, cAMP: 8.12 -log M
Binder: TKFTLSLDVPTNIMNLLFNIAKAKNLRAQAAANAHLMCQI (NES-PEG (about 20 kDa) on Cys 38; C-terminal amide) [Pegylated Cys-variant CRHR2 peptide agonist (NES linker, PEG about 20 kDa), SEQ ID NO: 92]

Log DR against h-SCP, cAMP: 1 log10 ratio
pA50, cAMP: 8.74 -log M
Binder: TKFTLSLDVPTNIMNLLFNIAKAKNLRCQAAANAHLMAQI (NES-PEG MW5000 on Cys 28; C-terminal amide) [Pegylated Cys-variant CRHR2 peptide agonist (NES-PEG MW5000), SEQ ID NO: 96]

Log DR against h-SCP, cAMP: 0.8 log10 ratio
pA50, cAMP: 8.94 -log M
Binder: TKFTLSLDVPTNIMNLLFNIAKAKNLRCQAAANAHLMAQI (NES-PEG MW30000 on Cys 28; C-terminal amide) [Pegylated Cys-variant CRHR2 peptide agonist (NES-PEG MW30000), SEQ ID NO: 99]

Log DR against h-SCP, cAMP: > 2.39 log10 ratio
pA50, cAMP: ~7 -log M
Binder: TKFTLSLDVPTNIMNLLFNIAKAKNLRAQAAANAHLMAQC (NES-PEG (about 20 kDa) on Cys 40; C-terminal amide) [Pegylated Cys-variant CRHR2 peptide agonist (NES linker, PEG about 20 kDa), SEQ ID NO: 94]

Log DR against h-SCP, cAMP: ~0.74 log10 ratio
pA50, cAMP: ~9 -log M
Binder: TKFTLSLDVPTNIMNLLFNIAKAKNLRCQAAANAHLMAQI (NES-PEG MW12000 on Cys 28; C-terminal amide) [Pegylated Cys-variant CRHR2 peptide agonist (NES-PEG MW12000), SEQ ID NO: 97]

Log DR against h-SCP, cAMP: 1.47 log10 ratio
pA50, cAMP: 8.2 -log M
Binder: TKFTLSLDVPTNIMNLLFNIAKAKNLRAQAAANAHLMACI (NES-PEG (about 20 kDa) on Cys 39; C-terminal amide) [Pegylated Cys-variant CRHR2 peptide agonist (NES linker, PEG about 20 kDa), SEQ ID NO: 93]

Log DR against h-SCP, cAMP: 0.43 log10 ratio
pA50, cAMP: 9.31 -log M
Binder: TKFTLSLDVPTNIMNLLFNIAKAKNLRCQAAANAHLMAQI (NES-PEG MW2000 on Cys 28; C-terminal amide) [Pegylated Cys-variant CRHR2 peptide agonist (NES-PEG MW2000), SEQ ID NO: 95]

Log DR against h-SCP, cAMP: 0.98 log10 ratio
pA50, cAMP: 8.48 -log M
Binder: TKFTLSLDVPTNIMNLLFNIAKAKNLRAQAAANACLMAQI (NES-PEG (about 20 kDa) on Cys 35; C-terminal amide) [Pegylated Cys-variant CRHR2 peptide agonist (NES linker, PEG about 20 kDa), SEQ ID NO: 89]

Log DR against h-SCP, cAMP: 0.18 log10 ratio
pA50, cAMP: 9.5 -log M
B3: Pegylated Cys-variant CRHR2 peptide agonist (NES-PEG-NEM MW20000), SEQ ID NO: 98 (peptide)
peptide: TKFTLSLDVPTNIMNLLFNIAKAKNLRCQAAANAHLMAQI
modifications: NES-PEG-NEM MW20000 on Cys 28 (double-ended linear PEG with an N-Ethylmaleimide cap at the non-linked end); C-terminal amide

Log DR against h-SCP, cAMP: > 3.43 log10 ratio
pA50, cAMP: ~6.23 -log M
Binder: TKFTLSLDVPTNIMNLLFNIAKAKNLRAQAAANAHLCAQI (NES-PEG (about 20 kDa) on Cys 37; C-terminal amide) [Pegylated Cys-variant CRHR2 peptide agonist (NES linker, PEG about 20 kDa), SEQ ID NO: 91]

The next lines start with the binder.

Binder: TKFTLSLDVPTNIMNLLFNIAKAKNLRAQAAANACLMAQI-NH2 [Cys-variant CRHR2 peptide agonist, SEQ ID NO: 36]
Log DR against h-SCP, cAMP: 0.42 log10 ratio
pA50, cAMP: 9.1 -log M

Binder: TKFTLSLDVPTNIMNLLFNIAKAKNLRAQAAANAHLMAQC-NH2 [Cys-variant CRHR2 peptide agonist, SEQ ID NO: 41]
Log DR against h-SCP, cAMP: 2.07 log10 ratio
pA50, cAMP: 7.45 -log M

B1: Cys-variant of stresscopin peptide with N-Ethylsuccinimide (NES) reactive group, SEQ ID NO: 44 (peptide)
peptide: TKFTLSLDVPTNIMNLLFNIAKAKNLRAQAAAC(Succinimide(1-Et,3-yl))AHLMAQI-NH2
modifications: N-terminus assumed
SMILES: CC[C@H](C)[C@H](NC(=O)[C@H](CCC(N)=O)NC(=O)[C@H](C)NC(=O)[C@H](CCSC)NC(=O)[C@H](CC(C)C)NC(=O)[C@H](Cc1c[nH]cn1)NC(=O)[C@H](C)NC(=O)[C@H](CSC1CC(=O)N(CC)C1=O)NC(=O)[C@H](C)NC(=O)[C@H](C)NC(=O)[C@H](C)NC(=O)[C@H](CCC(N)=O)NC(=O)[C@H](C)NC(=O)[C@H](CCCNC(=N)N)NC(=O)[C@H](CC(C)C)NC(=O)[C@H](CC(N)=O)NC(=O)[C@H](CCCCN)NC(=O)[C@H](C)NC(=O)[C@H](CCCCN)NC(=O)[C@H](C)NC(=O)[C@@H](NC(=O)[C@H](CC(N)=O)NC(=O)[C@H](Cc1ccccc1)NC(=O)[C@H](CC(C)C)NC(=O)[C@H](CC(C)C)NC(=O)[C@H](CC(N)=O)NC(=O)[C@H](CCSC)NC(=O)[C@@H](NC(=O)[C@H](CC(N)=O)NC(=O)[C@@H](NC(=O)[C@@H]1CCCN1C(=O)[C@@H](NC(=O)[C@H](CC(=O)O)NC(=O)[C@H](CC(C)C)NC(=O)[C@H](CO)NC(=O)[C@H](CC(C)C)NC(=O)[C@@H](NC(=O)[C@H](Cc1ccccc1)NC(=O)[C@H](CCCCN)NC(=O)[C@@H](N)[C@@H](C)O)[C@@H](C)O)C(C)C)[C@@H](C)O)[C@@H](C)CC)[C@@H](C)CC)C(N)=O
Log DR against h-SCP, cAMP: ~1.97 log10 ratio
pA50, cAMP: ~7.5 -log M

Binder: TKFTLSLDVPTNIMNLLFNIAKAKNLRAQAAANAHLMACI-NH2 [Cys-variant CRHR2 peptide agonist, SEQ ID NO: 40]
Log DR against h-SCP, cAMP: 0.55 log10 ratio
pA50, cAMP: 9.08 -log M

Binder: TKFTLSLDVPTNIMNLLFNIAKAKNLRAQAAANAHLMCQI-NH2 [Cys-variant CRHR2 peptide agonist, SEQ ID NO: 39]
Log DR against h-SCP, cAMP: 0.41 log10 ratio
pA50, cAMP: 9.21 -log M

Binder: TKFTLSLDVPTNIMNLLFNIAKAKNLRAQAAANAHCMAQI-NH2 [Cys-variant CRHR2 peptide agonist, SEQ ID NO: 37]
Log DR against h-SCP, cAMP: 1.05 log10 ratio
pA50, cAMP: 8.58 -log M

Binder: TKFTLSLDVPTNIMNLLFNIAKAKNLRAQAAANAHLCAQI-NH2 [Cys-variant CRHR2 peptide agonist, SEQ ID NO: 38]
Log DR against h-SCP, cAMP: > 2.95 log10 ratio
pA50, cAMP: ~6.67 -log M

B4: Cys-variant of stresscopin peptide with N-Ethylsuccinimide (NES) reactive group, SEQ ID NO: 43 (peptide)
peptide: TKFTLSLDVPTNIMNLLFNIAKAKNLRAQAAANAC(Succinimide(1-Et,3-yl))LMAQI-NH2
modifications: N-terminus assumed
SMILES: CC[C@H](C)[C@H](NC(=O)[C@H](CCC(N)=O)NC(=O)[C@H](C)NC(=O)[C@H](CCSC)NC(=O)[C@H](CC(C)C)NC(=O)[C@H](CSC1CC(=O)N(CC)C1=O)NC(=O)[C@H](C)NC(=O)[C@H](CC(N)=O)NC(=O)[C@H](C)NC(=O)[C@H](C)NC(=O)[C@H](C)NC(=O)[C@H](CCC(N)=O)NC(=O)[C@H](C)NC(=O)[C@H](CCCNC(=N)N)NC(=O)[C@H](CC(C)C)NC(=O)[C@H](CC(N)=O)NC(=O)[C@H](CCCCN)NC(=O)[C@H](C)NC(=O)[C@H](CCCCN)NC(=O)[C@H](C)NC(=O)[C@@H](NC(=O)[C@H](CC(N)=O)NC(=O)[C@H](Cc1ccccc1)NC(=O)[C@H](CC(C)C)NC(=O)[C@H](CC(C)C)NC(=O)[C@H](CC(N)=O)NC(=O)[C@H](CCSC)NC(=O)[C@@H](NC(=O)[C@H](CC(N)=O)NC(=O)[C@@H](NC(=O)[C@@H]1CCCN1C(=O)[C@@H](NC(=O)[C@H](CC(=O)O)NC(=O)[C@H](CC(C)C)NC(=O)[C@H](CO)NC(=O)[C@H](CC(C)C)NC(=O)[C@@H](NC(=O)[C@H](Cc1ccccc1)NC(=O)[C@H](CCCCN)NC(=O)[C@@H](N)[C@@H](C)O)[C@@H](C)O)C(C)C)[C@@H](C)O)[C@@H](C)CC)[C@@H](C)CC)C(N)=O
Log DR against h-SCP, cAMP: -0.32 log10 ratio
pA50, cAMP: 9.79 -log M

B5: Cys-variant of stresscopin peptide with N-Ethylsuccinimide (NES) reactive group, SEQ ID NO: 42 (peptide)
peptide: TKFTLSLDVPTNIMNLLFNIAKAKNLRAQAAANAHLMAQC(Succinimide(1-Et,3-yl))-NH2
modifications: N-terminus assumed
SMILES: CC[C@H](C)[C@H](NC(=O)[C@H](CC(N)=O)NC(=O)[C@H](Cc1ccccc1)NC(=O)[C@H](CC(C)C)NC(=O)[C@H](CC(C)C)NC(=O)[C@H](CC(N)=O)NC(=O)[C@H](CCSC)NC(=O)[C@@H](NC(=O)[C@H](CC(N)=O)NC(=O)[C@@H](NC(=O)[C@@H]1CCCN1C(=O)[C@@H](NC(=O)[C@H](CC(=O)O)NC(=O)[C@H](CC(C)C)NC(=O)[C@H](CO)NC(=O)[C@H](CC(C)C)NC(=O)[C@@H](NC(=O)[C@H](Cc1ccccc1)NC(=O)[C@H](CCCCN)NC(=O)[C@@H](N)[C@@H](C)O)[C@@H](C)O)C(C)C)[C@@H](C)O)[C@@H](C)CC)C(=O)N[C@@H](C)C(=O)N[C@@H](CCCCN)C(=O)N[C@@H](C)C(=O)N[C@@H](CCCCN)C(=O)N[C@@H](CC(N)=O)C(=O)N[C@@H](CC(C)C)C(=O)N[C@@H](CCCNC(=N)N)C(=O)N[C@@H](C)C(=O)N[C@@H](CCC(N)=O)C(=O)N[C@@H](C)C(=O)N[C@@H](C)C(=O)N[C@@H](C)C(=O)N[C@@H](CC(N)=O)C(=O)N[C@@H](C)C(=O)N[C@@H](Cc1c[nH]cn1)C(=O)N[C@@H](CC(C)C)C(=O)N[C@@H](CCSC)C(=O)N[C@@H](C)C(=O)N[C@@H](CCC(N)=O)C(=O)N[C@@H](CSC1CC(=O)N(CC)C1=O)C(N)=O
Log DR against h-SCP, cAMP: ~1.72 log10 ratio
pA50, cAMP: ~7.75 -log M
